Reference: paper PMC1636354 (Nucleic Acids Research, 2006)

T1: human Rad54B protein (untagged, purified) (human, UniProt Q9Y620 1-910)
T1 sequence: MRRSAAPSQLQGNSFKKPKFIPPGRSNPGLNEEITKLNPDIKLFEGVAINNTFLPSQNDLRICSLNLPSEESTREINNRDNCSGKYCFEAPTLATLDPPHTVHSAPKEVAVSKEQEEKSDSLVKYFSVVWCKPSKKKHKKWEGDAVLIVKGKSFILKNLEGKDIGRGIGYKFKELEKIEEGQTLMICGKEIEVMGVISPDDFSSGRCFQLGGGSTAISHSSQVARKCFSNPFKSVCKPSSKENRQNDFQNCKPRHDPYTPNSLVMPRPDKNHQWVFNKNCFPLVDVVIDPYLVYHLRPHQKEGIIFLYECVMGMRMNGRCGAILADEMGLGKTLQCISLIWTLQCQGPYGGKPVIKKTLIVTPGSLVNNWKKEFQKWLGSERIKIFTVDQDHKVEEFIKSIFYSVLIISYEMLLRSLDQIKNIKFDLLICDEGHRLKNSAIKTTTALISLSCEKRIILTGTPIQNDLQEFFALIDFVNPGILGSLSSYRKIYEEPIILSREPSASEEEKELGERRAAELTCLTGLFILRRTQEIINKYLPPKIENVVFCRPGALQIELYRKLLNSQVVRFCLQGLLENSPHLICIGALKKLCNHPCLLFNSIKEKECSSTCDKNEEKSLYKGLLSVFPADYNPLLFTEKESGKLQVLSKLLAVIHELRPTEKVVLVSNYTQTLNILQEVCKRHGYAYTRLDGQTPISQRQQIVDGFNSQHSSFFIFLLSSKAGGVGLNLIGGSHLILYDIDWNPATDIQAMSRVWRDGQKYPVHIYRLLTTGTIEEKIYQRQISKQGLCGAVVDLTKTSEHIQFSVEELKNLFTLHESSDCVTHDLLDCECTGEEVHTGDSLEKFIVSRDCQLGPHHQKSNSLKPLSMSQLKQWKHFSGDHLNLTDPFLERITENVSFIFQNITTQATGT

T2: Dmc1 (human, UniProt Q14565 1-340)
T2 sequence: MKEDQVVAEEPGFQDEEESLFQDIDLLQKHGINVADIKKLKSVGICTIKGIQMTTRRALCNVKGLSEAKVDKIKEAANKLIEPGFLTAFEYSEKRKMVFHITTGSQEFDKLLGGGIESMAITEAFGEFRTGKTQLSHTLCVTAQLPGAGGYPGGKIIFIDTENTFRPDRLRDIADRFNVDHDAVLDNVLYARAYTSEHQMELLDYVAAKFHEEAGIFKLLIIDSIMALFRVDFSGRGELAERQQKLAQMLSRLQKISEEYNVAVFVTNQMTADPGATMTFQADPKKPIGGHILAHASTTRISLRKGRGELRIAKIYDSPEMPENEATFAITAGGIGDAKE


Legend:
Experiment in all cases: pull-down
[1] = molecular target: T1, human Rad54B protein (untagged, …)
pull-down = molecular target: the molecule itself
Dmc1 = molecular target: T2, Dmc1

Binder	binding result [1]	binding result (pull-down)	binding result (Dmc1)
human Dmc1 protein (purified) (natural protein) MKEDQVVAEEPGFQDEEESLFQDIDLLQKHGINVADIKKLKSVGICTIKGIQMTTRRALCNVKGLSEAKVDKIKEAANKLIEPGFLTAFEYSEKRKMVFHITTGSQEFDKLLGGGIESMAITEAFGEFRTGKTQLSHTLCVTAQLPGAGGYPGGKIIFIDTENTFRPDRLRDIADRFNVDHDAVLDNVLYARAYTSEHQMELLDYVAAKFHEEAGIFKLLIIDSIMALFRVDFSGRGELAERQQKLAQMLSRLQKISEEYNVAVFVTNQMTADPGATMTFQADPKKPIGGHILAHASTTRISLRKGRGELRIAKIYDSPEMPENEATFAITAGGIGDAKE	binds	binds	–
SAT-120 (ssDNA) DNA: ATTTCTTCATTTCATGCTAGACAGAAGAATTCTCAGTAACTTCTTTGTGCTGTGTGTATTCAACTCACAGAGTGGAACGTCCCTTTGCACAGAGCAGATTTGAAACACTCTTTTTGTAGT	–	–	binds

Now from value to binder, other results behind:

binding result [1]	Binder	binding result (pull-down)	binding result (Dmc1)
binds	Dmc1 mutant lacking 81 amino acid residues from the N-terminus (Dmc1 82-340) (domain or fragment) EPGFLTAFEYSEKRKMVFHITTGSQEFDKLLGGGIESMAITEAFGEFRTGKTQLSHTLCVTAQLPGAGGYPGGKIIFIDTENTFRPDRLRDIADRFNVDHDAVLDNVLYARAYTSEHQMELLDYVAAKFHEEAGIFKLLIIDSIMALFRVDFSGRGELAERQQKLAQMLSRLQKISEEYNVAVFVTNQMTADPGATMTFQADPKKPIGGHILAHASTTRISLRKGRGELRIAKIYDSPEMPENEATFAITAGGIGDAKE	binds	–
binds	human Rad51 protein (natural protein) MAMQMQLEANADTSVEEESFGPQPISRLEQCGINANDVKKLEEAGFHTVEAVAYAPKKELINIKGISEAKADKILAEAAKLVPMGFTTATEFHQRRSEIIQITTGSKELDKLLQGGIETGSITEMFGEFRTGKTQICHTLAVTCQLPIDRGGGEGKAMYIDTEGTFRPERLLAVAERYGLSGSDVLDNVAYARAFNTDHQTQLLYQASAMMVESRYALLIVDSATALYRTDYSGRGELSARQMHLARFLRMLLRLADEFGVAVVITNQVVAQVDGAAMFAADPKKPIGGNIIAHASTTRLYLRKGRGETRICKIYDSPCLPEAEAMFAINADGVGDAKD	–	–
